From patent US20050170334A1

Experiments:
Experiment in all cases: ELISA, peptide coated, antibody 10 µg/ml
[1] = molecular target: NM16 (influenza A virus)
[2] = molecular target: NM15 (influenza A virus)
[3] = molecular target: M15 (influenza A virus)
[4] = molecular target: NM17 (influenza A virus)
[5] = molecular target: M2 peptide (extracellular 23-amino-acid M2 peptide) (influenza A virus)
[6] = molecular target: M16 (influenza A virus)

B1: C40G1 (antibody, V domains shown)
VH: QLQLQESGPGLVKPSETLSLTCTVSGGSISSSFYYCGWIRQPPGKGLEWIGSIYYRGSTYYNPSLKSRVTISVDTSKNQFSLKLSSVTAADTAVYYCARRVTMVRGVKGDYFDYWGQGTLVTVSS
VL: DIQMTQSPSSLSASVGDRVTITCRASQGISSWLAWYQQKPEKVPKSLIYAASSLQSGVPSRFSGSGSGTDFTLTISSLQPEDFATYYCQQYNYYPLTFGGGTKVEIKR
B1 was tested, and the ELISA (OD450) [1] was 2.37 OD450, the ELISA (OD450) [2] was 2.51 OD450 and the ELISA (OD450) [3] was 2.73 OD450. It also gave an ELISA (OD450) [4] of 2.41 OD450, an ELISA (OD450) [5] of 2.56 OD450 and an ELISA (OD450) [6] of 2.64 OD450.
